The results in this text go back to publication PMC6408514.

By stoichiometry N is commonly meant a count of units in the complex or per binding partner.

Holding throughout (assay): SEC; SEC-HPLC, Superose 6, PBS pH 7.4, samples at 2 mg/mL; 24-mer assembly
The target of assay [1] is human H-chain ferritin mutant C (Q14A/D15A/R22A/F81A/Q83A) (human).
Assay [2] concerns the target human H-chain ferritin mutant B (F81A/Q83A) (human).
The target of assay [3] is human H-chain ferritin mutant A (Q14A/D15A/R22A) (human).
Assay [4] addresses human L-chain ferritin mutant D (S5T/T14Q/S22R/L81F/D116E/A119K/A123D following H-Ft numbering) (human).

Regarding “human H-chain ferritin mutant C (Q14A/D15A/R22A/F81A/Q83A) (natural protein)”, in assay [1], the stoichiometry N came out at 24.
As for “human H-chain ferritin mutant B (F81A/Q83A) (natural protein)”, the stoichiometry N in assay [2] is 24.
“human H-chain ferritin mutant A (Q14A/D15A/R22A) (natural protein)” came in with a stoichiometry N in assay [3] of 24.
With “human L-chain ferritin mutant D (S5T/T14Q/S22R/L81F/D116E/A119K/A123D following H-Ft numbering) (natural protein)”, the stoichiometry N in assay [4] was determined as 24.
